Laboratory results from article PMC3637499.

What was measured:
Chico-RFP (Drosophila) [1] = molecular target: Chico-RFP (Drosophila) (UniProt Q9XTN2); test: FRET or BRET; sensitised emission FRET, CFP donor and mRFP acceptor, confocal microscopy of fixed larval salivary glands co-expressing both fusions (hsp-Gal4); glands incubated 15 min in Schneider's medium without insulin; FRETeff >=10% taken as positive
Chico-RFP (Drosophila) [2] = molecular target: Chico-RFP (Drosophila) (UniProt Q9XTN2); test: FRET or BRET; sensitised emission FRET, CFP donor and mRFP acceptor, confocal microscopy of fixed larval salivary glands co-expressing both fusions (hsp-Gal4); glands incubated 15 min in Schneider's medium with insulin (100 nM); FRETeff >=10% taken as positive
InR-CFP (Drosophila) [3] = molecular target: InR-CFP (Drosophila) (UniProt P09208); test: FRET or BRET; sensitised emission FRET, CFP donor and mRFP acceptor, confocal microscopy of fixed larval salivary glands co-expressing both fusions (hsp-Gal4); glands incubated 15 min in Schneider's medium without insulin; FRETeff >=10% taken as positive
Sequence of UniProt P09208 (P09208 1086-2144): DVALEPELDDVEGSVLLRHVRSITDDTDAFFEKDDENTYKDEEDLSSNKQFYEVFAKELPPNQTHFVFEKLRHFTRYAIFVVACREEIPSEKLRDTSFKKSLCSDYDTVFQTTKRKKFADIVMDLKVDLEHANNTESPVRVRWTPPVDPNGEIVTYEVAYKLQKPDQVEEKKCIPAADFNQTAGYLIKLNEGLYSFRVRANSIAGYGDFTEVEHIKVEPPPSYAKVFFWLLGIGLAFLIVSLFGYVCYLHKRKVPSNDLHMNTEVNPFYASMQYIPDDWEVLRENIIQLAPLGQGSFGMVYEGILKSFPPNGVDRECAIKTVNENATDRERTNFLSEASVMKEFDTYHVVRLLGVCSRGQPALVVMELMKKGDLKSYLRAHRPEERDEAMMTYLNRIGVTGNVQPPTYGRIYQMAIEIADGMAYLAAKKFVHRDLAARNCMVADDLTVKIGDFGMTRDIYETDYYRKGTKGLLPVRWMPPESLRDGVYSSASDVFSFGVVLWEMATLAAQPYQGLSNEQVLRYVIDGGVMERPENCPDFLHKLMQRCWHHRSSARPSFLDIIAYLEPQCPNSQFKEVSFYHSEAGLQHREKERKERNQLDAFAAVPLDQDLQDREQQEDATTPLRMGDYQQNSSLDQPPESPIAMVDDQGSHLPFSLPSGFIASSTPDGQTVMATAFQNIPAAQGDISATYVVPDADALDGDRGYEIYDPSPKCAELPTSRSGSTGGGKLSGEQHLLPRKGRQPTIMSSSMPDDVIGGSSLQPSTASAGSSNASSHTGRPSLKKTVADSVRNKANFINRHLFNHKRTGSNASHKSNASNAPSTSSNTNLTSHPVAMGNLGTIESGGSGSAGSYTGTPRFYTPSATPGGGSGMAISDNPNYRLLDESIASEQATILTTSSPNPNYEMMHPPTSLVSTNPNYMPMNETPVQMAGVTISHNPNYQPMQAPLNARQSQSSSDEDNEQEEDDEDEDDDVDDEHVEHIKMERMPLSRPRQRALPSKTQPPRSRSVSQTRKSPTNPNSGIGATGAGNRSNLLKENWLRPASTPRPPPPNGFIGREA

InR-CFP (Drosophila) [4] = molecular target: InR-CFP (Drosophila) (UniProt P09208); test: FRET or BRET; sensitised emission FRET, CFP donor and mRFP acceptor, confocal microscopy of fixed larval salivary glands co-expressing both fusions (hsp-Gal4); glands incubated 15 min in Schneider's medium with insulin (100 nM); FRETeff >=10% taken as positive
InR-CFP (Drosophila) [5] = molecular target: InR-CFP (Drosophila) (UniProt P09208); test: FRET or BRET; sensitised emission FRET, negative controls with Delta-RFP as acceptor in fixed larval salivary glands; insulin condition not stated; absence of FRET yields values <3%
Lnk-CFP (Drosophila) = test: as above
InR-CFP (Drosophila) [6] = molecular target: InR-CFP (Drosophila) (UniProt P09208); test: FRET or BRET; sensitised emission FRET, CFP donor and mRFP acceptor, confocal microscopy of fixed larval salivary glands co-expressing both fusions (hsp-Gal4); glands incubated 15 min in Schneider's medium without insulin; FRETeff >=10% taken as positive; remark: listed apart in the source
InR-CFP (Drosophila) [7] = molecular target: InR-CFP (Drosophila) (UniProt P09208); test: FRET or BRET; sensitised emission FRET, CFP donor and mRFP acceptor, confocal microscopy of fixed larval salivary glands co-expressing both fusions (hsp-Gal4); glands incubated 15 min in Schneider's medium with insulin (100 nM); FRETeff >=10% taken as positive; remark: listed apart in the source

## Lnk-CFP (natural protein)
Chico-RFP (Drosophila) [1]
  FRET efficiency (FRETeff): 13.3%
  percent of tissue samples with positive FRET: 30%
Chico-RFP (Drosophila) [2]
  FRET efficiency (FRETeff): 14.8%
  percent of tissue samples with positive FRET: 73%

## Lnk-RFP (natural protein)
InR-CFP (Drosophila) [3]
  FRET efficiency (FRETeff): 10.8%
  percent of tissue samples with positive FRET: 60%
InR-CFP (Drosophila) [4]
  FRET efficiency (FRETeff): 14%
  percent of tissue samples with positive FRET: 53%

B1: Delta-RFP (natural protein)
chain: QVHSSGSFELRLKYFSNDHGRDNEGRCCSGESDGATGKCLGSCKTRFRVCLKHYQATIDTTSQCTYGDVITPILGENSVNLTDAQRFQNKGFTNPIQFPFSFSWPGTFSLIVEAWHDTNNSGNARTNKLLIQRLLVQQVLEVSSEWKTNKSESQYTSLEYDFRVTCDLNYYGSGCAKFCRPRDDSFGHSTCSETGEIICLTGWQGDYCHIPKCAKGCEHGHCDKPNQCVCQLGWKGALCNECVLEPNCIHGTCNKPWTCICNEGWGGLYCNQDLNYCTNHRPCKNGGTCFNTGEGLYTCKCAPGYSGDDCENEIYSCDADVNPCQNGGTCIDEPHTKTGYKCHCANGWSGKMCEEKVLTCSDKPCHQGICRNVRPGLGSKGQGYQCECPIGYSGPNCDLQLDNCSPNPCINGGSCQPSGKCICPAGFSGTRCETNIDDCLGHQCENGGTCIDMVNQYRCQCVPGFHGTHCSSKVDLCLIRPCANGGTCLNLNNDYQCTCRAGFTGKDCSVDIDECSSGPCHNGGTCMNRVNSFECVCANGFRGKQCDEESYDSVTFDAHQYGATTQARADGLTNAQVVLIAVFSVAMPLVAVIAACVVFCMKRKRKRAQEKDDAEARKQNEQNAVATMHHNGSGVGVALASASLGGKTGSNSGLTFDGGNPNIIKNTWDKSVNNICASAAAAAAAAAAADECLMYGGYVASVADNNNANSDFCVAPLQRAKSQKQLNTDPTLMHRGSPAGSSAKGASGGGPGAAEGKRISVLGEGSYCSQRWPSLAAAGVAGACSSQLMAAASVAGSGAGTAQQQRSVVCGTPHM
InR-CFP (Drosophila) [5]
  FRET efficiency (FRETeff): < 3%
Lnk-CFP (Drosophila)
  FRET efficiency (FRETeff): < 3%

B2: Chico-RFP (natural protein)
chain: MASISDDGMALSGYLKKLKTMKKKFFVLYEETSTSAARLEYYDTEKKFLQRAEPKRVIYLKNCFNINRRLDTKHRFVIVLSSRDGGFGIVLENENDLRKWLDKLLVLQRNIANSNGTAHSPYDHVWQVVIQKKGISEKVGITGTYHCCLTSKSLTFVCIGPEKTPNGEDRVASIEILLTTIRRCGHASPQCIFYVELGRQSVLGSGDLWMETDNAAIATNMHNTILSAMSAKTESNTNLINVYQNRPDLSHEPMRKRSSSANEASKPINVNVIQNSQNSLELRSCSSPHNYGFGRERCDSLPTRNGTLSESSNQTYFGSNHGLRSNTISGIRPHSTNKHSNSPTFTMPLRCSESEESSISVDESDDNGSFSHYRLNTRSSETAIPEENIDDFASAELFSKVTEQNVSDENYIPMNPVNPTDAIHEKEKADMQRLEDASLHFNFPEHASEKLAKDFDLDSDNQCCRPIRAYSIGNKVEHLKFNKRLGHLNDTGQNPNRVRAYSVGSKSKIPRCDLQRVVLVEDNKHEFTANRSQSSITKEGTSYGSSANRQKKSTSAPLLSLKNQINSDRMSDLMEIDFSQATNLEKQKFIKNNEIPKYIENVFPKAPRTDSSSLTLHATSQKDIFNGTKLNNTAITSEDGYLEMKPVGNGYTPSSNCLPMKVEKLKLSDYQTAPPLTATAAPVHDLNKISTYNISAEKWREQPSRSEEKKSNSPLNDNTFSSKPTNVESTSKSHDVHSANQIDCEKVCAQSSDKLNNHLADKIVENNNLDIGGHEEKKLVHSISSEDYTQIKDKSNDFTKFNEAGYKILQIKSDSSLISSKLYQKGIHKDNLERSQRLTESVNTIPDNATATAVSSSSLTKFNINSAKPAAAADSRSTGTDPSTPQNILQIKDLNFPSRSSSRISQPELHYASLDLPHCSGQNPAKYLKRGSRESPPVSACPEDGNTYAKIDFDQSDSSSSSSNIFNT
InR-CFP (Drosophila) [6]
  FRET efficiency (FRETeff): 13.5%
  percent of tissue samples with positive FRET: 20%
InR-CFP (Drosophila) [7]
  FRET efficiency (FRETeff): 14.1%
  percent of tissue samples with positive FRET: 71%
